The target of this experiment is SARS-CoV RBD-His8-SpyTag003 (SARS-CoV, UniProt P59594, heterogeneous N-linked glycosylation). The experiment is described as follows: ELISA. The conditions noted are these: both partners purified. Background: In an ELISA, binding on a coated surface is turned into a signal by an enzyme label.

The values that follow come from paper PMC9240080 (Nature Communications, 2022).

B1: EY6A (antibody, V domains shown)
VH: EVQLVESGGGVVQPGRSLRLSCAASAFTFSSYDMHWVRQAPGKGLEWVAVISYDGSNKYYADSVKGRFTISRDNSKNTLYLQMNSLRAEDTAVYYCAKDGGKLWVYYFDYWGQGTLVTVSS
VL: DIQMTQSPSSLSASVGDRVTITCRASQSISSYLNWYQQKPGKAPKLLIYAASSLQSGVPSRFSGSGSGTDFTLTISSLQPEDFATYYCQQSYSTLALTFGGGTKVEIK
Consider B1, for which the binding result is “binds”.
